Laboratory results published in patent US20120045393A1 (priority 2009, published 2012).
Like-named read-outs stand apart in the source and are kept apart here. Non-standard residues stand in square brackets, D forms with d. Primed or numbered codes have the meaning given here. azaGly′ = aza-glycine residue at the C-terminus, with NH2; Bpa = N[C@@H](Cc1ccc(C(=O)c2ccccc2)cc1)C(=O)O; d2Nal = N[C@H](Cc1ccc2ccccc2c1)C(=O)O; DO3A10CM = not defined here; Bpa4 = non-natural residue; Damfe4 = not defined here; Amfe4 = not defined here; Ampc4 = not defined here; Hypt4 = not defined here; Ppt4 = not defined here; azaGly = NNC(=O)O; Sar = CNCC(=O)O

Legend:
[1] = system: EFO-27 cells; assay: Internalization/efflux studies in EFO-27 cells; format: cell-based, human; details: for Cell associated activity at 0 h % Intern / Cell associated activity at 2 h % Intern: internalized; for Cell associated activity at 0 h % Memb / Cell associated activity at 2 h % Memb: membrane bound; for Bound %: of added; for Bound: per well
Protocol: Internalization/Efflux Studies: The internalization and efflux studies were carried out following the general procedure. Basically, ^177Lu-LHRH II or ^125I-LHRH II ([^125I-Tyr^8]BRU-2477) (75 uL, 3.0 μCi/mL) was added to the EFO-27 or PC-3 cells. The cells were incubated for 40 min at 37° C. The unbound radioactivity was washed off (4×). Following addition of fresh medium, the cells were further incubated for up to 2 h. At various time points (15, 30, 60 & 120 min) the distribution of radioactivity (membrane-bound, internalized, and efflux) was determined
The internalization and efflux of several Lu-177 labeled LHRH II analogs in EFO-27 cells have been investigated. Basically, following pre-incubation of cells with ^177Lu-LHRH II samples, the binding buffer containing the ^177Lu was replaced with fresh media without complex. The extent of initial internalization (T=0), the amount of radioactive material that remained internalized and the efflux at 0-120 min were determined. The results are shown in FIGS. 21a-f and 22a-c and in Table 25.

[2] = system: LHRH binding sites on human ovarian cancer cells (EFO-27);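 note: Cell-associated radioactivity on confluent EFO-27 monolayers in 96-well plates, measured by microplate scintillation counting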
[3] = target: LHRH receptor (LHRH binding sites) on EFO-27 human ovarian cancer cells (human); assay: competition with [125I-Tyr8]BRU-2477 for binding to EFO-27 cells
[4] = target: LHRH receptor (LHRH binding sites) on EFO-27 human ovarian cancer cells (human); assay: competition with [125I-Tyr8]BRU-2477, EFO-27 cells
[5] = target: LHRH binding sites on EFO-27 human ovarian cancer cells (human); assay: competition with [125I-Tyr8]BRU-2477 on EFO-27 cells

Molecule: N=C(N)NCCC[C@@H](NC(=O)[C@H](Cc1c[nH]cn1)NC(=O)[C@H](CO)NC(=O)[C@H](Cc1c[nH]c2ccccc12)NC(=O)[C@H](Cc1c[nH]cn1)NC(=O)[C@@H](Cc1ccc2ccccc2c1)NC(=O)CN1CCN(CC(=O)O)CCN(CC(=O)O)CCN(CC(=O)O)CC1)C(=O)N[C@@H](Cc1c[nH]c2ccccc12)C(=O)N[C@@H](Cc1ccc(C(=O)c2ccccc2)cc1)C(=O)N1CCC[C@H]1C(=O)NNC(N)=O [BRU-2666]
- Cell associated activity at 0 h % Efflux [1]: 5.5%
- Cell associated activity at 0 h % Intern [1]: 43.6%
- Cell associated activity at 0 h % Memb [1]: 50.3%
- Cell associated activity at 2 h % Efflux [1]: 80.6%
- Cell associated activity at 2 h % Intern [1]: 10.0%
- Cell associated activity at 2 h % Memb [1]: 9.5%
- Bound % [1]: 12.20%
- Bound [1]: 25.0 fmol
- EC50 [2]: 470 nM
- times more potent than the comparator analog ([2]; BRU-2441 vs BRU-2439, BRU-2666 vs Sar1 analog, BRU-3072 vs Pro9 analog): 2

Molecule: DO3A10CM-Adoa-Sar-His-Trp-Ser-His-Darg-Trp-Bpa4-Pro-azaGly-NH2 (Seq111) (peptide)
- EC50 [3]: 3300 nM

Molecule: BRU-2756: DO3A10CM LHRH-II analog prepared in house for Lu labeling (DO3A10CM-[Sar][Amfe4]WSH[dR]W[Bpa4]P[azaGly]-NH2; reading uncertain)
- Cell associated activity at 0 h % Efflux [1]: 7.7%
- Cell associated activity at 0 h % Intern [1]: 42.0%
- Cell associated activity at 0 h % Memb [1]: 51.5%
- Cell associated activity at 2 h % Efflux [1]: 82.5%
- Cell associated activity at 2 h % Intern [1]: 9.9%
- Cell associated activity at 2 h % Memb [1]: 7.4%
- Bound % [1]: 5.10%
- Bound [1]: 10.2 fmol
- EC50 ([2]; Table 5: modifications of amino acids at positions 1 and 2, in vitro binding on EFO-27 cells): 280 nM

Molecule: N=C(N)NCCC[C@H](NC(=O)[C@@H](Cc1ccc2ccccc2c1)NC(=O)CN1CCN(CC(=O)O)CCN(CC(=O)O)CCN(CC(=O)O)CC1)C(=O)N[C@@H](Cc1c[nH]c2ccccc12)C(=O)N[C@@H](CO)C(=O)N[C@@H](Cc1c[nH]cn1)C(=O)N[C@H](CCCNC(=N)N)C(=O)N[C@@H](Cc1c[nH]c2ccccc12)C(=O)N[C@@H](Cc1ccc(C(=O)c2ccccc2)cc1)C(=O)N1CCC[C@H]1C(=O)NCCOCCN [BRU-2968, DO3A10CM-Dna12-Arg-Trp-Ser-His-Darg-Trp-Bpa4-Pro-Da15o3pt]
- Cell associated activity at 0 h % Efflux [1]: 4.9%
- Cell associated activity at 0 h % Intern [1]: 14.1%
- Cell associated activity at 0 h % Memb [1]: 80.8%
- Cell associated activity at 2 h % Efflux [1]: 52.9%
- Cell associated activity at 2 h % Intern [1]: 9.0%
- Cell associated activity at 2 h % Memb [1]: 38.1%
- Bound % [1]: 23.59%
- Bound [1]: 68.8 fmol
- EC50 [2]: 240 nM

B1: BRU-3107 (peptide)
peptide: XRXSHXWXPX
modifications: N-terminal DO3A10CM; Dnal2 at 1; Amfe4 at 3; Darg at 6; Bpa4 at 8; azaGly-NH2 at 10
- EC50 [4]: 380 nM
- EC50 [5]: 380 nM

B2: BRU-2727 (peptide)
peptide: XXHWSHXWXPX
modifications: as printed: DO3A10CM-Ambz4-Sar-His-Trp-Ser-His-Darg-Trp-Bpa4-Pro-azaGly-NH2 (Ambz4 is the linker)
- EC50 [3]: 650 nM

B3: BRU-2896 (peptide)
peptide: XHWSHXWXPX
modifications: as printed: DO3A10CM-Adoa-Adoa-Sar-His-Trp-Ser-His-Darg-Trp-Bpa4-Pro-azaGly-NH2 (Adoa-Adoa is the linker)
- EC50 [3]: 3200 nM

B4: BRU-2959 (peptide)
peptide: XRWSRXWXPX
modifications: N-terminal DO3A10CM; Dnal2 at 1; Darg at 6; Bpa4 at 8; azaGly-NH2 at 10
- EC50 [4]: 250 nM
- EC50 [5]: 250 nM

B5: BRU-2961 (peptide)
peptide: XRWSXXWXPX
modifications: N-terminal DO3A10CM; Dnal2 at 1; Orn at 5; Darg at 6; Bpa4 at 8; azaGly-NH2 at 10
- EC50 [4]: 350 nM
- EC50 [5]: 350 nM

B6: BRU-3069 (peptide)
peptide: XRWSHXWXPX
modifications: N-terminal DO3A10CM; Thy at 1; Darg at 6; Bpa4 at 8; azaGly-NH2 at 10
- EC50 [4]: 380 nM
- EC50 [5]: 380 nM

B7: BRU-3104 (peptide)
peptide: XRXSHXWXPX
modifications: N-terminal DO3A10CM; Dnal2 at 1; Nal1 at 3; Darg at 6; Bpa4 at 8; azaGly-NH2 at 10
- EC50 [4]: 250 nM
- EC50 [5]: 250 nM

B8: BRU-2952 (peptide)
peptide: DO3A10CM-[d2Nal]RWSH[dR]W[Bpa4][Hypt4][azaGly]-NH2
modifications: reading uncertain
- EC50 [4]: 280 nM
- EC50 [5]: 280 nM

B9: BRU-3057 (peptide)
peptide: XRWSHXWXPX
modifications: N-terminal DO3A10CM; Qua3 at 1; Darg at 6; Bpa4 at 8; azaGly-NH2 at 10
- EC50 [4]: 380 nM
- EC50 [5]: 380 nM

B10: BRU-3049 (peptide)
peptide: XXWSHXWXPX
modifications: N-terminal DO3A10CM; Dnal2 at 1; Darg at 2; Darg at 6; Bpa4 at 8; azaGly-NH2 at 10
- EC50 [4]: 360 nM
- EC50 [5]: 360 nM

B11: BRU-2960 (peptide)
peptide: XRWSXXWXPX
modifications: N-terminal DO3A10CM; Dnal2 at 1; Fur3ala at 5; Darg at 6; Bpa4 at 8; azaGly-NH2 at 10
- EC50 [4]: 400 nM
- EC50 [5]: 400 nM

B12: BRU-3105 (peptide)
peptide: XRXSHXWXPX
modifications: N-terminal DO3A10CM; Dnal2 at 1; Nal2 at 3; Darg at 6; Bpa4 at 8; azaGly-NH2 at 10
- EC50 [4]: 220 nM
- EC50 [5]: 220 nM

B13: BRU-3063 (peptide)
peptide: XRWSHXWXPX
modifications: N-terminal DO3A10CM; Datdc2 at 1; Darg at 6; Bpa4 at 8; azaGly-NH2 at 10
- EC50 [4]: 470 nM
- EC50 [5]: 470 nM

B14: BRU-2990 (peptide)
peptide: XRWSHXWXPG
modifications: as printed: Dnal2-R-W-S-H-Darg-W-Bpa4-P-G-Dabt14-DO3A10CM (C-terminal chelator)
- EC50 [3]: 30200 nM

B15: BRU-2795 (peptide)
peptide: GGHWSHXWXPX
modifications: as printed: DO3A10CM-Gly-Gly-His-Trp-Ser-His-Darg-Trp-Bpa4-Pro-azaGly-NH2 (first Gly is the linker)
- EC50 [3]: 1370 nM

B16: BRU-3054 (peptide)
peptide: XRWSHXWXPX
modifications: N-terminal DO3A10CM; Dtyr at 1; Darg at 6; Bpa4 at 8; azaGly-NH2 at 10
- EC50 [4]: 430 nM
- EC50 [5]: 430 nM

B17: BRU-3056 (peptide)
peptide: XRWSHXWXPX
modifications: N-terminal DO3A10CM; Apsp at 1; Darg at 6; Bpa4 at 8; azaGly-NH2 at 10
- EC50 [4]: 440 nM
- EC50 [5]: 440 nM

B18: BRU-3053 (peptide)
peptide: GXRWSHXWXPX
modifications: N-terminal DO3A10CM; Gly linker before 1; Tpi at 1; Darg at 6; Bpa4 at 8; azaGly-NH2 at 10
- EC50 [4]: 320 nM
- EC50 [5]: 320 nM

B19: BRU-3076 (peptide)
peptide: XRWSHXWXP
modifications: as printed: Sar-R-W-S-H-Darg-W-Bpa4-P-Daprp13-DO3A10CM (C-terminal chelator)
- EC50 [3]: 750 nM

B20: BRU-2734 (peptide)
peptide: XHWSHXWXPX
modifications: Mephe at 1; Darg at 6; Bpa4 at 8; azaGly-NH2 at 10
- EC50 [4]: 150 nM
- EC50 [5]: 150 nM

B21: BRU-3055 (peptide)
peptide: XRWSHXWXPX
modifications: N-terminal DO3A10CM; Atdc2 at 1; Darg at 6; Bpa4 at 8; azaGly-NH2 at 10
- EC50 [4]: 390 nM
- EC50 [5]: 390 nM

B22: BRU-3094 (peptide)
peptide: XRWSHXWXPX
modifications: N-terminal DO3A10CM; Ampha4 at 1; Darg at 6; Bpa4 at 8; azaGly-NH2 at 10
- EC50 [4]: 350 nM
- EC50 [5]: 350 nM

B23: BRU-3062 (peptide)
peptide: DO3A10CM-[d2Nal]RWSH[dR]W[Bpa][Ampc4][azaGly′]-NH2
modifications: reading uncertain; also: printed as DO3A10CM-Dnal2-Arg-Trp-Ser-His-Darg-Trp-Bpa4-Ampc4-azaGly-NH2
- EC50 [4]: 320 nM
- EC50 [5]: 320 nM

B24: BRU-3115 (peptide)
peptide: XRWXHXWXPX
modifications: N-terminal DO3A10CM; Dnal2 at 1; Amfe4 at 4; Darg at 6; Bpa4 at 8; azaGly-NH2 at 10
- EC50 [4]: 150 nM
- EC50 [5]: 150 nM

B25: BRU-2733 (peptide)
peptide: GHWSHXWXPX
modifications: as printed: DO3A10CM-Gly-His-Trp-Ser-His-Darg-Trp-Bpa4-Pro-azaGly-NH2 (Gly is AA1)
- EC50 [3]: 1180 nM

B26: BRU-3068 (peptide)
peptide: GXRWSHXWXPX
modifications: N-terminal DO3A10CM; Gly linker before 1; Dtpi at 1; Darg at 6; Bpa4 at 8; azaGly-NH2 at 10
- EC50 [4]: 240 nM
- EC50 [5]: 240 nM

B27: BRU-3095 (peptide)
peptide: DO3A10CM-[Damfe4][Damfe4]WSH[dR]W[Bpa]P[azaGly]-NH2
modifications: reading uncertain
- EC50 [4]: 290 nM
- EC50 [5]: 290 nM

B28: BRU-3071 (peptide)
peptide: XRWSHXWXPX
modifications: N-terminal DO3A10CM; Dbpa4 at 1; Darg at 6; Bpa4 at 8; azaGly-NH2 at 10
- EC50 [4]: 310 nM
- EC50 [5]: 310 nM

B29: BRU-2955 (peptide)
peptide: XRWXHXWXPX
modifications: N-terminal DO3A10CM; Dnal2 at 1; Dap at 4; Darg at 6; Bpa4 at 8; azaGly-NH2 at 10
- EC50 [4]: 410 nM
- EC50 [5]: 410 nM

B30: BRU-3070 (peptide)
peptide: XRWSHXWXPX
modifications: N-terminal DO3A10CM; Bip at 1; Darg at 6; Bpa4 at 8; azaGly-NH2 at 10
- EC50 [4]: 280 nM
- EC50 [5]: 280 nM

B31: BRU-2953 (peptide)
peptide: DO3A10CM-[d2Nal]RWSH[dR]W[Bpa4][Ppt4][azaGly]-NH2
modifications: reading uncertain
- EC50 [4]: 830 nM
- EC50 [5]: 650 nM
- factor of reduced binding against BRU-2813 [5]: 2 fold

B32: BRU-3073 (peptide)
peptide: XRWSHXWXPP
modifications: as printed: Sar-R-W-S-H-Darg-W-Bpa4-P-P-Az23po-Da15o3pt-DO3A10CM (C-terminal chelator)
- EC50 [3]: 840 nM
